In IntAct's records for PubMed 21048939:

Target: arhg7_human ARHGEF7 (UniProt Q14155)
Chain of UniProt Q14155 (Q14155 whole entry): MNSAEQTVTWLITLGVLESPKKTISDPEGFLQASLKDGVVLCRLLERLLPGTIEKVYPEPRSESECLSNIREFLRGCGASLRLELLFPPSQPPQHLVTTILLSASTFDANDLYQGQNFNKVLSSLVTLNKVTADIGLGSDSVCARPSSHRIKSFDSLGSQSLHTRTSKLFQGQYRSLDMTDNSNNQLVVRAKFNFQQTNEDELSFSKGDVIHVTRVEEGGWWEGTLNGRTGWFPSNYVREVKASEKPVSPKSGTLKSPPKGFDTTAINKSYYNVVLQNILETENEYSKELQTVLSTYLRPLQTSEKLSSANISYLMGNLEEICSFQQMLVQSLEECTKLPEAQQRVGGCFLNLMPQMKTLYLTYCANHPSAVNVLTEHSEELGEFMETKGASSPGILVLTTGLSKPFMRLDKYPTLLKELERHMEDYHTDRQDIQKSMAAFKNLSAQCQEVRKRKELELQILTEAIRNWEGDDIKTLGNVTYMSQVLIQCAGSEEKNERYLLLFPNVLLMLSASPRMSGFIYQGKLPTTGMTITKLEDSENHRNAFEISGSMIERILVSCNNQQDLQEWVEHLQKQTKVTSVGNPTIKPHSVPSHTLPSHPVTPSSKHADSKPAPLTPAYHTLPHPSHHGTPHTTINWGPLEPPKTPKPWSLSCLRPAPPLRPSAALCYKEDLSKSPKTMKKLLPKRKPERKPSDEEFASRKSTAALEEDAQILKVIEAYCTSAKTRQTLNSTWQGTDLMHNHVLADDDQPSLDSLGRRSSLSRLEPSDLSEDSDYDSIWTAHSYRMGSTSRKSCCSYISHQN

Row | Substance | effect of a mutation on the interaction
1 | Leucine-rich repeat serine/threonine-protein kinase 2 (Homo sapiens), Q5S007 N1437S | decreasing interaction
2 | Leucine-rich repeat serine/threonine-protein kinase 2 (Homo sapiens), Q5S007 R1441C | decreasing interaction
3 | Leucine-rich repeat serine/threonine-protein kinase 2 (Homo sapiens), Q5S007 T1348N | decreasing interaction
